Here are results for nine molecules from US8173604 (ALBERT EINSTEIN COLLEGE OF MEDICINE OF YESHIVA UNIVERSITY, dated 2012).

The target of assay [1] is T1, insect cell-produced and purified GST-cyclin A/Cdk2 (kinase reactions, ~3 nM) (UniProt P20248 1-432; P24941 1-298). In words: cell-based or functional assay.
Assay [2] deals with cellular cyclin A (endogenous, U2OS cells; associated with Cdk2) (human, UniProt P20248 1-432). Kind of assay: cell-based or functional assay.
The target of assay [3] is T2, myc tagged cyclin A (expressed alone or cotransfected in 293T cells) (UniProt P20248 1-432).
T2 construct: domain: full-length; also called myc-cyclin A; cyclin A alone; not shown: myc tag
Kind of assay: IP-Western with transfected 293T cell extracts (FIG. 1E).

For assay [4], the target named is T3, Skp1, Cul-1 and myc-Roc1 (SCF subunits co-expressed with flag-Skp2 in 293T cells) (UniProt P63208 1-163; Q13616 1-776; P62877 1-108).
T3 construct: The three other subunits of the SCF complex, co-immunoprecipitated via the flag tag on Skp2; also called Skp1-Cul1-Roc1; SCF^Skp2Roc1 complex subunits; not shown: myc tag
T3 sequence (P63208 whole entry, chain 1 of 3): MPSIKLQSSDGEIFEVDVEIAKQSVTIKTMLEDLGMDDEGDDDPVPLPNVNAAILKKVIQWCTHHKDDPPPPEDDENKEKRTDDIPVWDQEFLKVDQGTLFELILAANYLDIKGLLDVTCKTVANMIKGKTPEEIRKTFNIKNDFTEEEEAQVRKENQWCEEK
T3 sequence (Q13616 whole entry, chain 2 of 3): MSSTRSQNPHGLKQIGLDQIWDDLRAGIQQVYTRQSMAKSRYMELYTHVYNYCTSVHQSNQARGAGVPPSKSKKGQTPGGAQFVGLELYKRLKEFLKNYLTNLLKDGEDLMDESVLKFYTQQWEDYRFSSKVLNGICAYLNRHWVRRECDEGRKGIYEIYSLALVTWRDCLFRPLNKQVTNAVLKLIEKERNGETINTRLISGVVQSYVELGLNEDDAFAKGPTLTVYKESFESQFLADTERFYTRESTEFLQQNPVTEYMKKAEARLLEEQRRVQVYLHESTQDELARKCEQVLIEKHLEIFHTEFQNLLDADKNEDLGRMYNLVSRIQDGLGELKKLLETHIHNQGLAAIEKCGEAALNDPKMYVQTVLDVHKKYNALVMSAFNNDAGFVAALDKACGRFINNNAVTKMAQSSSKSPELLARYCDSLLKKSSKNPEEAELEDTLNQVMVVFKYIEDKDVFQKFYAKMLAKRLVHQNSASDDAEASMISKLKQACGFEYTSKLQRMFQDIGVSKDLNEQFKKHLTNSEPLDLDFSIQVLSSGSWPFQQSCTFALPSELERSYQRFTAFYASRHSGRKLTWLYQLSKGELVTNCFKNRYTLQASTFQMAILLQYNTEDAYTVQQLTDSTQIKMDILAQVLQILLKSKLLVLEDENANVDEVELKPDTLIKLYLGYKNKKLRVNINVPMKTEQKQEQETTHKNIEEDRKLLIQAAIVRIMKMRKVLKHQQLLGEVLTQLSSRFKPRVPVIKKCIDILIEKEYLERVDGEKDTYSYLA
T3 sequence (P62877 whole entry, chain 3 of 3): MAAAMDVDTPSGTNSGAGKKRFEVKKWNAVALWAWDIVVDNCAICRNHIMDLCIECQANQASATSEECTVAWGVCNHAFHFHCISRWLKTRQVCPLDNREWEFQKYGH
Kind of assay: co-expression in 293T cells, anti-flag IP-Western (FIG. 2A).

The target in assay [5] is T1, insect cell-produced and purified …. Kind of assay: kinase inhibition: purified proteins, ~3 nM GST-cyclin A/Cdk2, Rb-C phosphorylation, non-linear least squares (FIG. 7F).
Assay [6] deals with T4, cyclin A 309-432 fragment (C-terminal cyclin-fold and the C-terminus) (UniProt P20248 309-432).
T4 construct: In transfected 293T cell extract; not shown: myc tag
In words: GST pull-down with transfected 293T extracts (FIG. 4C).

Assay [7] addresses cyclin D1/Cdk4 (transfected 293T cell extracts) (UniProt P24385 1-295; P11802 1-303). In words: GST pull-down with transfected 293T extracts (FIG. 4E).
The target in assay [8] is Cdk2 alone (singly transfected 293T cell extract) (UniProt P24941 1-298). In words: GST pull-down with singly transfected 293T extracts (FIG. 4A).
Assay [9] deals with myc-cyclin A/Cdk2 (293T cell extracts transfected with myc-cyclin A and Cdk2) (UniProt P20248 1-432; P24941 1-298). In words: GST pull-down with myc-cyclin A/Cdk2 transfected 293T extracts (FIG. 3C).
The target of assay [10] is T2, myc tagged cyclin A (expressed alone or …). Kind of assay: cotransfection, IP-Western in 293T cells (FIG. 1A).

cyclin D1/Cdk4 (transfected 293T cell extracts), sequence (P24385 whole entry, chain 1 of 2): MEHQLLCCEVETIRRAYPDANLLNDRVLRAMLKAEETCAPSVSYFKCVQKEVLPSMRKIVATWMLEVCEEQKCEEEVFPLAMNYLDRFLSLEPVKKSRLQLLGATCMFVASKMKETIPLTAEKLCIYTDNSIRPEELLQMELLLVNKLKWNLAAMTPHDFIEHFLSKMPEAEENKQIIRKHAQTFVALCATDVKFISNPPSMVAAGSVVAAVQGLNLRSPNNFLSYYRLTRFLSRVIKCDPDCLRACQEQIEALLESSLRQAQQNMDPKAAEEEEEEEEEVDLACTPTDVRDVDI
cyclin D1/Cdk4 (transfected 293T cell extracts), sequence (P11802 whole entry, chain 2 of 2): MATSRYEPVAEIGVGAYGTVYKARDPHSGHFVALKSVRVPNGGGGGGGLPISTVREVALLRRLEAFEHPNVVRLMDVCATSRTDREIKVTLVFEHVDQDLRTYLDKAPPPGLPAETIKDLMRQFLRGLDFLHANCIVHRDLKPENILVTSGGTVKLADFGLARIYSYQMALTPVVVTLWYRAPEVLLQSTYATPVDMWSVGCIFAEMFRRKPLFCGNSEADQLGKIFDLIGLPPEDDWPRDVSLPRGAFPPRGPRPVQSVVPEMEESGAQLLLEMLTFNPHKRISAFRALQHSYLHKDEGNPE

B1: TAT-LDL peptide (TAT fused to the E2F1-derived LDL peptide) (peptide)
peptide: YGRKKRRQRRRGPVKRRLDL
For B1, in assay [1], the “in vitro cyclin A/Cdk2 kinase activity towards GST-Rb-C” value worked out at 10 fold. In assay [2], the “IC50 of U2OS cell killing (MTS assay, 24 hours)” value amounted to 7.5 µM.

B2: TAT-4060 peptide (HIV TAT domain fused to the 4060 peptide with a glycine linker) (peptide)
peptide: YGRKKRRQRRRGKTSELLSGMGVSALEKEE
In the case of B2, the “IC50 of U2OS cell killing (MTS assay, 24 hours)” value in [2] was found to be 35 µM.

B3: Skp2AAAA (full-length Skp2 with the four conserved residues of the 40-60 sequence mutated to alanine, flag tagged) (other)
chain: MHVFKTPGPADAMHRKHLQEIPDLSSNVATSFTWGWDSSKTSEAASGMGVAAAEKEEPDSENIPQELLSNLGHPESPPRKRLKSKGSDKDFVIVRRPKLNRENFPGVSWDSLPDELLLGIFSCLCLPELLKVSGVCKRWYRLASDESLWQTLDLTGKNLHPDVTGRLLSQGVIAFRCPRSFMDQPLAEHFSPFRVQDMDLSNSVIEVSTLHGILSQCSKLQNLSLELRLSDPIVNTLAKNSNLVRLNLPGCPGFPKFPLQTFLSSCPRLDELNLSWCFNFTEKHVQVAVAHVSETMTQLNLSGYRKNLQKSDLSTLVRRCPNLVHLDLSNSVMLKNDCFQEFSQLNYLQHLSLSRCYDIIPETLLELGEIPTLKTLQVFGIVPDGTLQLLKEALPHLQINCSHFTTIARPTIGNKKNQEIWGIKCRLTLQKPSCL
notes: also called Skp2AAAA mutant; flag tagged Skp2AAAA; not shown: flag tag
With B3, the binding result in assay [3] is reported as “no binding”; in assay [4] it was “binds”.

B4: Skp2N (eluted, GST cleaved off by thrombin) (other)
chain: MHVFKTPGPADAMHRKHLQEIPDLSSNVATSFTWGWDSSKTSELLSGMGVSALEKEEPDSENIPQELLSNLGHPESPPRKRLKSKGSDKDFVIVRRPKLN
notes: also called eluted and GST cleaved Skp2N; Skp2 N-terminus
The term Ki denotes the dissociation constant of the complex between target and ligand, obtained from inhibition or displacement. On to B4, for which the “Ki of p27 for cyclin A/Cdk2 kinase activity (Rb-C phosphorylation) in the presence of 80 nM of Skp2N” value in [1] was about 80 nM. For the same molecule, in assay [5], the inhibition constant Ki was about 520 nM.

B5: GST-Skp2N (Skp2 N-terminus cloned into pGEX-2T) (other)
chain: MHVFKTPGPADAMHRKHLQEIPDLSSNVATSFTWGWDSSKTSELLSGMGVSALEKEEPDSENIPQELLSNLGHPESPPRKRLKSKGSDKDFVIVRRPKLN
notes: not shown: glutathione S-transferase (GST) moiety of vector pGEX-2T, N-terminal fusion partner
In the case of B5, the binding result in assay [6], in assay [7] and in assay [8] was “no binding” throughout.

B6: GST-Skp2N-AAA53 (other)
chain: MHVFKTPGPADAMHRKHLQEIPDLSSNVATSFTWGWDSSKTSELLSGMGVAAAEKEEPDSENIPQELLSNLGHPESPPRKRLKSKGSDKDFVIVRRPKLN
notes: Residue 52 is already alanine; not shown: glutathione S-transferase (GST) moiety of vector pGEX-2T, N-terminal fusion partner
Consider B6, for which the binding result in assay [9] was “no binding”.

B7: GST-Skp2N-AA45 (other)
chain: MHVFKTPGPADAMHRKHLQEIPDLSSNVATSFTWGWDSSKTSEAASGMGVSALEKEEPDSENIPQELLSNLGHPESPPRKRLKSKGSDKDFVIVRRPKLN
notes: as for B5
Consider B7, for which the binding result in assay [9] is “no binding”.

B8: Skp2LRR (C-terminal fragment of Skp2 divided at residue 150) (other)
chain: TLDLTGKNLHPDVTGRLLSQGVIAFRCPRSFMDQPLAEHFSPFRVQDMDLSNSVIEVSTLHGILSQCSKLQNLSLELRLSDPIVNTLAKNSNLVRLNLPGCPGFPKFPLQTFLSSCPRLDELNLSWCFNFTEKHVQVAVAHVSETMTQLNLSGYRKNLQKSDLSTLVRRCPNLVHLDLSNSVMLKNDCFQEFSQLNYLQHLSLSRCYDIIPETLLELGEIPTLKTLQVFGIVPDGTLQLLKEALPHLQINCSHFTTIARPTIGNKKNQEIWGIKCRLTLQKPSCL
notes: also called LRR fragment
In the case of B8, in [10], the binding result is reported as “no binding”.

B9: Skp2NF (N-terminal fragment of Skp2 divided at residue 150) (other)
chain: MHVFKTPGPADAMHRKHLQEIPDLSSNVATSFTWGWDSSKTSELLSGMGVSALEKEEPDSENIPQELLSNLGHPESPPRKRLKSKGSDKDFVIVRRPKLNRENFPGVSWDSLPDELLLGIFSCLCLPELLKVSGVCKRWYRLASDESLWQ
notes: also called NF fragment
B9: the binding result in [10] is listed as “binds”.
